This is an account of results in paper PMC10159993.

Test [1] deals with H2AK119-biotinylated 185 bp nucleosome. The experiment in a line: FRET or BRET. A general note: In BRET a luciferase serves as donor, and the signal depends on an acceptor being close.
A further test concerns the target KDM2A(2–685) (human) (UniProt Q9Y2K7). The experiment in a line: FRET or BRET.

In test [1], “KDM2A(2–685) K99E/R105E/R128E/R152E (from UniProt Q9Y2K7 2-685) (domain or fragment)” gave a fold reduction of binding affinity against wild-type KDM2A of 20 fold.

For the substance “KDM2A(2–685) R152E (from UniProt Q9Y2K7 2-685) (domain or fragment)”, the fold reduction of binding affinity against wild-type KDM2A in test [1] was determined as 4 fold. “unmodified wild-type 147 bp nucleosome (complex)”: the ratio of IC50 (147 bp over 185 bp nucleosome as competitor) with KDM2A(2–685) (human) stood at 10 fold.
